Data on three molecules can be found in patent US20180118786A1 (ECOLE POLYTECHNIQUE FEDERALE DE LAUSANNE EPFL, published 2018).

Assay [1] concerns the target T1, human β-FXIIa (HFXIIAB; Molecular Innovations) (human, UniProt P00748 354-362; P00748 373-615, limits assumed).
T1 construct: domain: catalytic domain; Bought; also called human b-FXIIa; human FXIIa
In words: protease inhibition assay.

A further assay addresses T2, plasma kallikrein (human, UniProt P03952 20-638).
T2 construct: also called PK
The assay can be described thus: protease inhibition assay, specificity testing.

For another assay, the target named is T3, mouse FXIIa (mouse, UniProt Q80YC5 20-597, limits assumed).
T3 construct: also called mouse α-FXIIa (MFXIIA; Molecular Innovations)
T3 sequence (looked up): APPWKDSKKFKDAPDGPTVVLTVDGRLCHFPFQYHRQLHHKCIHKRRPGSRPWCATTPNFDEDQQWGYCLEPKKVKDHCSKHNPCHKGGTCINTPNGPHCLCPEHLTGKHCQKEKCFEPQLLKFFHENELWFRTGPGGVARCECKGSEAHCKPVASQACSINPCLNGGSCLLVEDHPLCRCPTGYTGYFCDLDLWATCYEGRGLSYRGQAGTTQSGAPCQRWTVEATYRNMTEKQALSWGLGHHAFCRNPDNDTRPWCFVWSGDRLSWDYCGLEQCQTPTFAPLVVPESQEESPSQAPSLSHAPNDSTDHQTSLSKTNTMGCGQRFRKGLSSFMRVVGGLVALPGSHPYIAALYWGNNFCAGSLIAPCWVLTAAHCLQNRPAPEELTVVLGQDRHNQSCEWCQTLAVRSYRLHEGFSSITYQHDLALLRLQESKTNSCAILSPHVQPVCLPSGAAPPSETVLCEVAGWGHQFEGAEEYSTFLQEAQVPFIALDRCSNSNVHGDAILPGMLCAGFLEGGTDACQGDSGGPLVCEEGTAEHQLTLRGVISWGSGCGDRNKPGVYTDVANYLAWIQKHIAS
In words: protease inhibition assay, fluorogenic substrate.

The next assay has as its target trypsin (human, UniProt P07477 24-247). In words: protease inhibition assay.
Another assay has as its target plasmin (human, UniProt P00747 97-810, limits assumed). In words: protease inhibition assay.
The next assay deals with T4, factor XIa (human, UniProt P03951 19-625).
T4 construct: also called FXIa
In words: protease inhibition assay.

As a reminder, the Ki is a dissociation constant, usually derived from enzyme kinetics or from competition with a known ligand. Higher therefore signals weaker binding.

Starred links: 1 amine or outer side, 2 acyl side, 3 side chain; linkers in the order of their positions; H or OH if unused. Positions of bridges follow the written chain, without caps; N, C: chain ends. Non-standard residues stand in square brackets, D forms with d. TATA = O=C(CC[*:1])N1CN(C(=O)CC[*:2])CN(C(=O)CC[*:3])C1

T2 sequence (P03952 20-638 limits assumed): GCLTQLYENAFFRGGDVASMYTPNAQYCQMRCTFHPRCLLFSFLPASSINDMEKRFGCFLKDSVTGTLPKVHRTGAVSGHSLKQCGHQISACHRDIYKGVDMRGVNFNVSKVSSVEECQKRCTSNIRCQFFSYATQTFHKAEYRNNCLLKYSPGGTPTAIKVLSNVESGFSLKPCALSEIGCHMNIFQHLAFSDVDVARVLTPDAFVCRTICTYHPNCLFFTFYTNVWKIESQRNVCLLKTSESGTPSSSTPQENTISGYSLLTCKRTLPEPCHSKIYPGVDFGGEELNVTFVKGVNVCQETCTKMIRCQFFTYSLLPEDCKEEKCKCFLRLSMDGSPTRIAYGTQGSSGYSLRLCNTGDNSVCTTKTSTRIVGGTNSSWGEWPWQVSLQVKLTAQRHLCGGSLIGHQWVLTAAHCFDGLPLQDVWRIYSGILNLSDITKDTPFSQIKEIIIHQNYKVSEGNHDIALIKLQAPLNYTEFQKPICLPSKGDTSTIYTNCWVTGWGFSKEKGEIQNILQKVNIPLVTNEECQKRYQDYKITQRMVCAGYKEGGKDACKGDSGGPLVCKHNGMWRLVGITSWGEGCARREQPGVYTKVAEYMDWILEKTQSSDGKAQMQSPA
plasmin, sequence (P00747 97-810 limits assumed): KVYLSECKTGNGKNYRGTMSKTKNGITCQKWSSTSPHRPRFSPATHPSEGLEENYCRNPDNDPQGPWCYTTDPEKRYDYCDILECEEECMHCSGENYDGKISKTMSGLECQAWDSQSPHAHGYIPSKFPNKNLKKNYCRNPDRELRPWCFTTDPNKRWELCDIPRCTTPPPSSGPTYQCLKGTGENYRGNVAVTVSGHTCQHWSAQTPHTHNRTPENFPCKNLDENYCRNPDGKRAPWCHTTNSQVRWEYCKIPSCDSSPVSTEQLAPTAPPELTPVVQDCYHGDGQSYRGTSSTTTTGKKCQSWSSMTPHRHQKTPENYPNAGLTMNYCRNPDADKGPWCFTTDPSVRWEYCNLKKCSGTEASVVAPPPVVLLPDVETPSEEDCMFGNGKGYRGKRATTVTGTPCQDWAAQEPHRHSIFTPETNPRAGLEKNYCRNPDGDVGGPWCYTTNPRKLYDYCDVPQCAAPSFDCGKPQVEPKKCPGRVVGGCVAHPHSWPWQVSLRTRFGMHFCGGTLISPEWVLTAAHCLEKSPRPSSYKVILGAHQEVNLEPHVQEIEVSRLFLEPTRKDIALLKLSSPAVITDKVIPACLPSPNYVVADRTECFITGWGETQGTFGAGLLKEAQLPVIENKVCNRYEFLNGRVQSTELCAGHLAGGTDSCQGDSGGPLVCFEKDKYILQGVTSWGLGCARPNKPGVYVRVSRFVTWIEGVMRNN
T1 sequence (P00748 373-615 limits assumed, one chain of several): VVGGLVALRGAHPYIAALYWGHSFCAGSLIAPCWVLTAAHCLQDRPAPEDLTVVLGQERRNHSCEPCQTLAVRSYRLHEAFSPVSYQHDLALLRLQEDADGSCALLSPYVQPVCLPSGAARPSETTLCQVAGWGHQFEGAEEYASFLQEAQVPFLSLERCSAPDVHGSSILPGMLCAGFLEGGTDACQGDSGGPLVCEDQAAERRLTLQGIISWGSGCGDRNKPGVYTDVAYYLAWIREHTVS

B1: JS7m (FXII618, Arg1 to D-Arg-D-Ser) (peptide)
peptide: H-[dR][dS]CFRLPCRQLRCR-NH2
modifications: linker 3-8-13 via TATA
SMILES: CC(C)C[C@@H]1NC(=O)[C@H](CCC(N)=O)NC(=O)[C@H](CCCNC(=N)N)NC(=O)[C@@H]2CSCCC(=O)N3CN(CN(C3)C(=O)CCSC[C@H](NC(=O)[C@@H](CO)NC(=O)[C@H](N)CCCNC(=N)N)C(=O)N[C@@H](Cc3ccccc3)C(=O)N[C@@H](CCCNC(=N)N)C(=O)N[C@@H](CC(C)C)C(=O)N3CCC[C@H]3C(=O)N2)C(=O)CCSC[C@@H](C(=O)N[C@@H](CCCNC(=N)N)C(N)=O)NC(=O)[C@H](CCCNC(=N)N)NC1=O
notes: also called Arg1→D-Arg-D-Ser (rs)
Molecule B1 came in with an inhibition constant Ki in assay [1] of 18 nM.

B2: FXII618 (peptide)
peptide: H-RCFRLPCRQLRCR-NH2
modifications: linker 2-7-12 via TATA
notes: Bicyclic; free N-terminus; also called peptide 1; bicyclic peptide 1
As for B2, the binding result with plasma kallikrein is reported as “binds”. Also, the Ki with mouse FXIIa was determined as 252 nM; with trypsin it was 5000 nM.

B3: corn trypsin inhibitor (other, UniProt P01088 29-155, looked up)
chain: SAGTSCVPGWAIPHNPLPSCRWYVTSRTCGIGPRLPWPELKRRCCRELADIPAYCRCTALSILMDGAIPPGPDAQLEGRLEDLPGCPREVQRGFAATLVTEAECNLATISGVAECPWILGGGTMPSK
notes: also called CTI
For the molecule B3, the Ki with plasmin was 5000 nM; in the assay with trypsin, 7 nM; with factor XIa, 12500 nM.
